B1: HMPV wild-type nucleoprotein N, RNA-bound rings (N-RNA), strain CAN97-83 (natural protein)
chain: MSLQGIHLSDLSYKHAILKESQYTIKRDVGTTTAVTPSSLQQEITLLCGEILYAKHADYKYAAEIGIQYISTALGSERVQQILRNSGSEVQVVLTRTYSLGKVKNNKGEDLQMLDIHGVEKSWVEEIDKEARKTMATLLKESSGNIPQNQRPSAPDTPIILLCVGALIFTKLASTIEVGLETTVRRANRVLSDALKRYPRMDIPKIARSFYDLFEQKVYYRSLFIEYGKALGSSSTGSKAESLFVNIFMQAYGAGQTMLRWGVIARSSNNIMLGHVSVQAELKQVTEVYDLVREMGPESGLLHLRQSPKAGLLSLANCPNFASVVLGNASGLGIIGMYRGRVPNTELFSAAESYAKSLKESNKINFSSLGLTDEEKEAAEHFLNVSDDSQNDYE

Key:
[1] = biological target: Human metapneumovirus (HMPV) phosphoprotein (P), strain CAN97-83 (Human metapneumovirus (strain CAN97-83)) (UniProt Q8B9Q8)
[2] = biological target: Human metapneumovirus (HMPV) phosphoprotein (P), strain CAN97-83 (Human metapneumovirus (strain CAN97-83)) (UniProt Q8B9Q8); remark: listed apart in the source

Row | Molecule | turbidity assay, absorbance at 395 nm against time (5-min intervals), N^0-P (40 uM) with anion exchange-purified P (40 uM), against N^0-P alone (peak above 0.6) (absorbance at 395 nm) [1] | turbidity assay, absorbance at 395 nm against time (5-min intervals), N-RNA (40 uM) with heparin-purified P (40 uM), against N-RNA alone (absorbance at 395 nm) [2]
1 | HMPV N^0-P construct: full-length N (1 to 394) fused to a P peptide (1 to 40) (from UniProt Q6WBA1 1-394; Q8B9Q8 1-40) | 0.3 | –
2 | B1 | – | 0.2
